Measured values: IntAct's records for PubMed 19817875

B1: Actin nucleation-promoting factor WAS (Homo sapiens), P42768 (parent)
chain: MSGGPMGGRPGGRGAPAVQQNIPSTLLQDHENQRLFEMLGRKCLTLATAVVQLYLALPPGAEHWTKEHCGAVCFVKDNPQKSYFIRLYGLQAGRLLWEQELYSQLVYSTPTPFFHTFAGDDCQAGLNFADEDEAQAFRALVQEKIQKRNQRQSGDRRQLPPPPTPANEERRGGLPPLPLHPGGDQGGPPVGPLSLGLATVDIQNPDITSSRYRGLPAPGPSPADKKRSGKKKISKADIGAPSGFKHVSHVGWDPQNGFDVNNLDPDLRSLFSRAGISEAQLTDAETSKLIYDFIEDQGGLEAVRQEMRRQEPLPPPPPPSRGGNQLPRPPIVGGNKGRSGPLPPVPLGIAPPPPTPRGPPPPGRGGPPPPPPPATGRSGPLPPPPPGAGGPPMPPPPPPPPPPPSSGNGPAPPPLPPALVPAGGLAPGGGRGALLDQIRQGIQLNKTPGAPESSALQPPPQSSEGLVGALMHVMQKRSRAIHSSDEGEDQAGDEDEDDEWDD

Experiments:
Settings in all cases: with wipf1_human WIPF1, O43516
Chain of wipf1_human WIPF1, O43516 (O43516 whole entry): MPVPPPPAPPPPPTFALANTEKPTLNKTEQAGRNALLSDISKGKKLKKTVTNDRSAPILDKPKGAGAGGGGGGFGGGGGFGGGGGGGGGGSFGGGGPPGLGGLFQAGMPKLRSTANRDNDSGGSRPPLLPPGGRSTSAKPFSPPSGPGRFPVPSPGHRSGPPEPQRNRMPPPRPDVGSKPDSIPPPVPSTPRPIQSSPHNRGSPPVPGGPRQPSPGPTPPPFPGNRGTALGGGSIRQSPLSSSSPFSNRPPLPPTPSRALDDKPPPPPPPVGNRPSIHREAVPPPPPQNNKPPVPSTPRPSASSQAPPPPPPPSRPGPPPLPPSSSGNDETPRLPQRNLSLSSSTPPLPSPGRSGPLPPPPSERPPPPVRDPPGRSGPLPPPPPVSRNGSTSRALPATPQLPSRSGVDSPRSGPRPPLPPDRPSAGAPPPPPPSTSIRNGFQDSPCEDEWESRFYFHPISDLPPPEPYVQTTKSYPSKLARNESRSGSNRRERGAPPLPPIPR

[1] = variants of: B1
[2] = variants of: B1; remark: listed apart in the source
[3] = variants of: B1; remark: listed apart in the source

Variant	effect of a mutation on the interaction [1]	effect of a mutation on the interaction [2]	effect of a mutation on the interaction [3]
MSGGPMGGRPGGRGAPAVQQNIPSTLLQDHENQRHFEMLGRKCLTLATAVVQLYLALPPGAEHWTKEHCGAVCFVKDNPQKSYFIRLYGLQAGRLLWEQELYSQLVYSTPTPFFHTFAGDDCQAGLNFADEDEAQAFRALVQEKIQKRNQRQSGDRRQLPPPPTPANEERRGGLPPLPLHPGGDQGGPPVGPLSLGLATVDIQNPDITSSRYRGLPAPGPSPADKKRSGKKKISKADIGAPSGFKHVSHVGWDPQNGFDVNNLDPDLRSLFSRAGISEAQLTDAETSKLIYDFIEDQGGLEAVRQEMRRQEPLPPPPPPSRGGNQLPRPPIVGGNKGRSGPLPPVPLGIAPPPPTPRGPPPPGRGGPPPPPPPATGRSGPLPPPPPGAGGPPMPPPPPPPPPPPSSGNGPAPPPLPPALVPAGGLAPGGGRGALLDQIRQGIQLNKTPGAPESSALQPPPQSSEGLVGALMHVMQKRSRAIHSSDEGEDQAGDEDEDDEWDD [L35H]	with no effect	disrupting interaction strength	decreasing interaction strength
MSGGPMGGRPGGRGAPAVQQNIPSTLLQDHKNQRLFEMLGRKCLTLATAVVQLYLALPPGAEHWTKEHCGAVCFVKDNPQKSYFIRLYGLQAGRLLWEQELYSQLVYSTPTPFFHTFAGDDCQAGLNFADEDEAQAFRALVQEKIQKRNQRQSGDRRQLPPPPTPANEERRGGLPPLPLHPGGDQGGPPVGPLSLGLATVDIQNPDITSSRYRGLPAPGPSPADKKRSGKKKISKADIGAPSGFKHVSHVGWDPQNGFDVNNLDPDLRSLFSRAGISEAQLTDAETSKLIYDFIEDQGGLEAVRQEMRRQEPLPPPPPPSRGGNQLPRPPIVGGNKGRSGPLPPVPLGIAPPPPTPRGPPPPGRGGPPPPPPPATGRSGPLPPPPPGAGGPPMPPPPPPPPPPPSSGNGPAPPPLPPALVPAGGLAPGGGRGALLDQIRQGIQLNKTPGAPESSALQPPPQSSEGLVGALMHVMQKRSRAIHSSDEGEDQAGDEDEDDEWDD [E31K]	with no effect	disrupting interaction strength	
MSGGPMGGRPGGRGAPAVQQNIPSTLLQDHENQRLFEMLGRKCLTPATAVVQLYLALPPGAEHWTKEHCGAVCFVKDNPQKSYFIRLYGLQAGRLLWEQELYSQLVYSTPTPFFHTFAGDDCQAGLNFADEDEAQAFRALVQEKIQKRNQRQSGDRRQLPPPPTPANEERRGGLPPLPLHPGGDQGGPPVGPLSLGLATVDIQNPDITSSRYRGLPAPGPSPADKKRSGKKKISKADIGAPSGFKHVSHVGWDPQNGFDVNNLDPDLRSLFSRAGISEAQLTDAETSKLIYDFIEDQGGLEAVRQEMRRQEPLPPPPPPSRGGNQLPRPPIVGGNKGRSGPLPPVPLGIAPPPPTPRGPPPPGRGGPPPPPPPATGRSGPLPPPPPGAGGPPMPPPPPPPPPPPSSGNGPAPPPLPPALVPAGGLAPGGGRGALLDQIRQGIQLNKTPGAPESSALQPPPQSSEGLVGALMHVMQKRSRAIHSSDEGEDQAGDEDEDDEWDD [L46P]	disrupting interaction strength		decreasing interaction strength
